Assay: soluble on expression in E. coli; label from the status in PepcDB or PDB records
With “MKRAAFYTLGCKVNQYETEAISEMFEKAGYKIVDFEDEADVYVINTCTVTNLSDRKSRQMIRRAKRNNENSIVIVIGCYAQTAPEEVSKIEGVNLVVGTKDRSRILEYLKELETSGGRRNYVGDIMKTREFEELGVNVYKERTRAFIKIQEGCNQFCTYCIIPYARGPVRSRSEENILKEVSGLAHSGYKEVVLTGIHVASYGKDIKNTSLIDIIRKVHEIEGIERIRLGSIEPTTVTEEFVRAIKGMEKLCPQFHISLQSGCDSTLKRMNRKYTTKEYLRSVELLRENLKDVAVTTDVMVGFPGETDEEFNETCRFVEKVLFARMHVFKYSRRKGTPAASYPDQVAPQKKEERSRILIELASRMTLEYNKSFTGRVLPVLFEQEVKGKEGFMEGLTPNYIRVECKGDKDIEGQILNVLLREAKDDYIVGEIVN” the “soluble on expression in E. coli” value was “soluble”. With “LRLHQWLRNHQPDEPPPDSYGLWGEVFDNIYHLQRRNQRARGRLQAVIDRIQESTAALRDAVIMLDSDGNLEWWNLAAENLLGLKTPQDGGQPVSNLIRHPRFKEYFDQEDYREPLEIPSPINERLRLQFHITLYGNREHLMLVRDVTRVHQLEQMRKDFVANVSHELRTPLTVIAGYLETLLDNVEDVNPRWLRALQQMQQQAGRMQNLLNDLLLLAKLEATDYPGDNKPVAVDALLASIRNDAQALSAGRNHRISLDAAPAVQLKGSEAELRSAFSNLVFNAVKYTPDEGEIRIRWWADEQGAHLSVQDTGIGVDPKHLPRLTERFYRVDSSRASNTGGTGLGLAIVKHVLIRHRARLEISSVPGKGSTFTCHFAPAQVAEAERKAPK” the “soluble on expression in E. coli” value was “not soluble”. With “MAHHHHHHMQRDADRMKRKKEEHRDEEEFGAFRFADGSMYEGKFCRRESNADGTAKSQFPSAHPPTTRNAQQQELPPPIPFHHGKGVFKDAGGLVYDGCWVEGDMTGEGLLRFPSGATYEGSMYANSFWGTGTYTWPDGSRYEGQWENNKMHGKGTYIDAKGKRWAGKFHHGQGVGLLAEVSL” the “soluble on expression in E. coli” value was “soluble”. For “MQFFTSDTHFFHKDLLGDSDFAPRPFASVDEMNQTIIDNWNARVAETDTVYHLGDIALYFTKPAIKSDEAVFNVLSQLNGHLELIKGNHDSRALFKYLAAHNFSDHGQPKFAFHDVGALIKYDHRQYYLTHYPMMLGIVNQIINLHGHIHHYAVPVKENINVGVDTPEQRYLTTSVPFGTPFSPTEIEQMVTGKAQEFREKQLEHHHHHH”, the “soluble on expression in E. coli” value was “not soluble”. For “MIPGGNTLKETAVVPAATGYDRIAFIYDIIAGIASFDQINKSQLAFLSSIPTQSTCLILGGGTGYFLQKLLEQNATIQVTYVDASQKMIEFAQKRIAEKKPYDAHRVTFVCKQVNVFEFDTYDSIVCNYFLDLFEEADVTMLIKKFKKHLKKDGILYITDFTMPIRTGIIEWSAKAGLKVLYWFFKRTTSLSNNQLPDIESVVLKQDFIKLHSADFFKGILRCSLYR”, the “soluble on expression in E. coli” value was “not soluble”. With “TKKNELNKAHVTIALTNPKTPTNVGAVIRAAGCYQADQIIYNGNRYAQAAKYHKKTLQTDTFNMQDKIPLLQVESFIGIKDSLESIPSSAKIICVDLVEGATPLPHFIHPPEAVYIFGPEDSSVKQEVIDIADDVVYVPTVGCMNLAATVNVLLYDRLAKSL” the “soluble on expression in E. coli” value was “not soluble”. In the case of “MSAQAAKVSKKELNSNHDGADETSEKEQQEAIEHIDEVQNEIDRLNEQASEEILKVEQKYNKLRQPFFQKRSELIAKIPNFWVTTFVNHPQVSALLGEEDEEAMHYLTRVEVTEFEDIKSGYRIDFYFDENPYFENKVLSKEFHMNESGDPSSKSTEIKWKSGKDMTKRSSQTQNKASRKRQHEEPESFFTWFTDHSDAGADELGEVIKDDIWPNPLQYYLVPDM”, the “soluble on expression in E. coli” value is reported as “soluble”. In the case of “GSMEPAMEPETLEARINRATNPLNKELDWASINGFCEQLNEDFEGPPLATRLLAHKIQSPQEWEAIQALTVLETCMKSCGKRFHDEVGKFRFLNELIKVVSPKYLGSRTSEKVKNKILELLYSWTVGLPEEVKIAEAYQMLKKQGIVKS”, the “soluble on expression in E. coli” value is reported as “soluble”. For “GMSFENYFPLWNDLNTAQKKLISDNLITQHVKKGTIIHNGNMDCTGLLLVKSGQLRTYILSDEGREITLYRLFDMDMCLLSASCIMRSIQFEVTIEAEKDTDLWIIPAEIYKGIMKDSAPVANYTNELMATRFSDVMWLIEQIMWKSLDKRVASFLLEETSIEGTNELKITHETIANHLGSHREVITRMLRYFQVEGLVKLSRGKITILDSKRLETLQRS”, the “soluble on expression in E. coli” value was “soluble”. With “MSSLTDKTRNGALKRNLLRQMLKASVFKFGEFQLKSGQISPIYIDLRECFGHPGLLMLISEAISKQVEISEVQYAGVLGIPYAALPYASVAAGNYLKKPLLIVRKEAKSYGTKKLIEGLYQPNDRLILIEDVVTTGGSILDVVKVLHTENLVASDVFCILDREQGGRQKLQDAGVTLHSLLDMQTVLTFLYSTGAIGDEQWHGIVQALNLPYTSPTKLEINSELENLSSLPYVENVRTPLAERESLTESALIKKILGIMRRKKSNLCLAVDYTTVEQCLQMIELAGPFVLAIKLHADAITDFNEEFTRKLTTMANDMDFIIFEDRKFGDTGNTNLLQLTGAQKIANWADVVTVHAVQGSDSIAGVFRKLAKDPTYRLSGVLLIAQLSTKGSLTALEGYTETAVKIANENRDVISGFITQTRVSACSDLLNWTPGVNLDAKSDSAGQQWRGVDEAIEVQQNDIIIVGRGVTSSSEPVQQLKRYRQIAWDALTRSDDSI” the “soluble on expression in E. coli” value was “not soluble”. In the case of “MGSDKIHHHHHHMQQHPVVSREEWLVKRRALLAREKEAIHQRDAITAERLALPWVKVDTRYVFDTASGKKTLADLFDGRSQLMIYHFMLGPGWAAGCPGCSLVADHLGGTLAHLNHHDVTLIAVSRAPLPEIEAYRQRMGWQFPWASSFGTTFNHDFRVSFTPDELASGAVDYNYTSTQSAQANDELPGLSAFYKDAAGNVYHTYSTYARGLEDLIGTFLILDRAPKGRNESGPMEWVRRHDEYGDAPKANACYEG”, the “soluble on expression in E. coli” value is reported as “not soluble”. With “MLKGKTIYVRPLEVTDAEENLGLQSENRDFFEQFSMIRADDYYTVEGQRKRITEYQERLEKDEEYHFGIFTASDDRLIGTVSLFQIIRGALQTAFIGYFLDKAHNGKGIMTEAVRLVVDYAFHELKLHRIEAGVMPRNLGSMRVLEKAGFHKEGIARKNVKINGVWEDHQVLAILNPDDEQLEHHHHHH” the “soluble on expression in E. coli” value was “not soluble”. With “MSKLYLMSLGCNKNLVDSEIMLGHLSAYELCDEPSKADVLIVNTCGFIDSAKKESINAILDLHEQRKKDSLLVVTGCLMQRYREELMKELPEVDLFTGVGDYERIDEMILKKTNLFSNSTYLQSENSKRIITGSNSHAFIKIAEGCNQKCSFCAIPSFKGKLKSREISSIIAELKDLVARGYKDFSFIAQDTSSYLFDKGEKDGLIRLIDEVEKIKGIRAARILYLYPTSASEALIKRIIASEIFINYFDMPLQHISDNMLKIMKRGANSTRLKEMLNLMKSAPNSFLRTGFIVGHPGESEADFEELCEFVKDFGFDRISVFAYSKEEDTAAFDMEQVPFKVINKRLKIIEKIVDEVIEKSFEKEVGQKRLVVCTGKSSEGEFFIAAKDLRWDREIDGEILINESECGNLEMGQIYECEILQNLDKKLLAKALRKVDANLEHHHHHH” the “soluble on expression in E. coli” value was “soluble”. With “MGSDKIHHHHHHMPTRSTPTERQKRLGAELRKMRLAAGAPTEYAAGLLGIDRTRLSNMESGIRPFSPDRVRTLACNYSCTDDGYIEALVAMTSTKERGWWERHRGILPSGLLDIAELEWHATRVRTAQVMHAPGLLQTEDYARGVFTAVLPPLTRLEVELRVAHRMERQQVLERPSPLPYIAYVHEAVLRMPYGGTEATQQQLKHLCSQSERENIEVRVIPTSTGGFPGAGHALLYADGAVPQLDTVQLDSAHGPEFTHADAQLTKYRSHLNWMDGAAMTSAASRDLIRKIARDL” the “soluble on expression in E. coli” value was “not soluble”. With “MGSDKIHHHHHHMHFDAETVTHRGGLSKLRSLTKVNPRLAPNLAKTMLGGPRDHAVVEAFNAHAADKGFEFTSTWASNNIPFVTPLLRDFAAKRPAGEAIRYMEIGAYEGRNLAFMDWLLPDRLAVTVIDPWFDEALNPEEKYHAVEPRFRRNMDKCGFKSLSTHKGFSTYVLPQMLERGEQFDLIYVDGSHTALAVLIDLCFCASLLSVGGMMVLDDYWHDISEIGGPGVKQAVDQFHAAFGRYFEIAAVYRQVALVKTSEIPR” the “soluble on expression in E. coli” value was “not soluble”. In the case of “MYEIPWSKPVNINMLDGRCRTVVGPLDAMHCLQSEWPVRDGAYYGCAIRACNAALKRRKRPEDARAAFIAALREAFLTVVPMQEEGHGPRPLE”, the “soluble on expression in E. coli” value is reported as “not soluble”. In the case of “MGYSSDTTPCCFAYIARPMPRAHIKEYFYTSGKCSNPAVVFVTRKNRQVCANPEKKWVREYINSLEMS”, the “soluble on expression in E. coli” value is reported as “soluble”. With “MPDQPLNQDGFPTASKGVEPDNLPDRVLVDGLKPKHQQLREILEEICTTQLQPGDMLPGERILEEKYGVSRITVRRAIGDLVASGRLKRARGKGTFVAHSPLISRLHLASFSAEMAAQKLSATSRILSSSRGPAPDDIADFFGTDRAAQHITLRRLRLGNGRPYAIDNGWYNSEFAPDLLENDVYNSVYSILDRVYGVPVTQAEQTVTAVAADEDTARLLDVTPGAPLLRILRQSLSGDKPVEWCVSLYRTDRYSLKTLVTRSEDL” the “soluble on expression in E. coli” value was “soluble”. With “MTSRTPLVSVLPDFPWDSLASAKAKAASHPDGIVNLSVGTPVDPVAPSIQIALAEAAGFSGYPQTIGTPELRAAIRGALERRYNMTKLVDASLLPVVGTKEAIALLPFALGISGTVVIPEIAYPTYEVAVVAAGCTVLRSDSLFKLGPQIPSMMFINSPSNPTGKVLGIPHLRKVVKWAQENNVILAADECYLGLGWDDENPPISILDPRVCDGDHTNLIAIHSLSKTSNLASYRAGYLVGDPALIGELTEVRKNLGLMVPFPIQQAMIAALNDDDQEAGQKLTYAIRRAKLMRALLESGFQVDNSEAGLYLWATREEPCRDTVDWFAERGILVAPGDFYGPRGAQHVRVAMTETDERVDAFVSRLS” the “soluble on expression in E. coli” value was “soluble”. In the case of “LESYLLDSERSKVIREMNETYTEFNYKETKKNLEGLASSLEHKYLVEASSLDEGLDEILTLHRLKVPGLLRISFLTTNLIELARETARDIMGRVRGWSKGNQVLRWLSCVFLHARNSLSK”, the “soluble on expression in E. coli” value is reported as “not soluble”. For “MGSDKIHHHHHHMTQPFKDAIGICKAIMRNGYDAYVVNTQLQSEILDQDCLEIDIACEPGYVELGKIFPGLEMSGEDGVVGTLREGGTLFRFYHTDTDDSSHPEATLARVTPTMLRRLEAKGTLPASLACPFIPSSAETYQGFDDFSKGDIRFEGVPDETLRRSYVLGVRAMRIAANFDLPIEPNSWMAIVRSASRILDYVPVTEIMDEWRKVEAENMYKFVQLMFDSMLLHGLIPELAALSRIRHLRTPEAGEETVLDHTIECMRRYPEELPFDWLGTVATMFHDVGKLYAAEYYNGKWTFYQHHRIGAKVTRKILRRLHFLPEDVDLICHLVRNHMRFHFMLTDKGIRRFKALDEYPRLIEMARADIKARDGNYTHFNHNMKYLERAETPEQMLEPLLNGNEIMEFTGLKPGPYVGVIRDALLKAQVTGEVTSMEEAIEYVKTYSERAPR”, the “soluble on expression in E. coli” value was “not soluble”. In the case of “MRGLTPEQTLMLADAFCAQTSGDLSVRDYAALNAIAAVTTAHIHAVVVFPTAHHMVKYVRSLVIQLSPLDDRNTDFADFLVAVLRDLNGL”, the “soluble on expression in E. coli” value is reported as “not soluble”. For “SSLRLPSAAELSGQWVLSGAEQHCDIRLNTDVLDGTTWKLAGDTACLQKLLPEAPVGWRPTPDGLTLTQADGSAVAFFSRNRDRYEHKLVDGSVRTLKKKA”, the “soluble on expression in E. coli” value was “soluble”. In the case of “MGSDKIHHHHHHMKPSRFNLVINESDGTLLFNTLSQALLWIDRKNTNKVLKTLEDPSSTELSKTEVEKLKRGMFLLDDNFDELEFLKFRFNTYRYSDRFLRYTIVLTHSCNFDCVYCYQKVLHISSGSYISEKVQSNFLLDVERKLEYQKPNLLSVTFYGGEPLLLEETVVNLSSKLKRLCEKYGVKYDSFIVTNGYLLTEKMVDDLQKAGIKALDITLDGTEVYHDRYRKARNGAPTFSSIFENIFRAVNKGLFVQIRVNVSRENIEDVKKLIDRIAEKKLRVEFNFQPIEIVEGNPTGFQDTALNTEEFAEIETKLWWYIREKIPEYPFEYFKKPRFARCDAMCKNSFVVDVDGRVYKCWGELGMENCSGFLKETGVEFTGSYLKWLTYDPLEDEECRRCLVLPFCMGGCAFNRVVYRTLKSSKVKKPHTCIPLRYNLNEFIKIVADYKRRSAVHGISQRSSGG”, the “soluble on expression in E. coli” value is reported as “not soluble”.
